# Laboratory results taken from patent publication US10125144B2, “Rho kinase inhibitors” (Kadmon Corporation, LLC, priority 2013, dated 2018).
# “Also recorded” adds a separate entry of the source. Read-outs that look alike come from different tables or passages of the source.
# Tests used:
# human VEGFR2 [1] = biological target: T1, human VEGFR2 (Homo sapiens (Human), UniProt P35968); assay: Biacore analysis of binding to human VEGFR2; details: human antigen
# KDR-PAE cells [2] = assay: VEGF-induced migration of KDR-PAE cells; assay type: cell-based, porcine; details: VEGF gradient
# Method: Migration of KDR-PAE cells was induced with a VEGF gradient (50 ng/ml VEGF (up), 100 ng/ml VEGF (low)).
# [3] = system: phosphorylation of KDR and p44/42 in HUVEC; assay: VEGFR2-mediated signal transduction in HUVEC; assay type: cell-based, human
# [4] = biological target: binding of human VEGF with human VEGFR2 (Homo sapiens (Human), UniProt P35968); assay: ELISA ligand blocking, human VEGF / human VEGFR2
# murine VEGFR2 [5] = biological target: T2, murine VEGFR2 (Mus musculus (Mouse), UniProt P35918); assay: Biacore analysis of binding to murine VEGFR2; details: murine antigen
# [6] = biological target: VEGFR2 on MS1 murine endothelial cells (Mus musculus (Mouse), UniProt P35918); assay: binding to VEGFR2 on MS1 murine endothelial cells; assay type: cell-based
# [7] = system: phosphorylation of KDR and p44/42 in KDR-PAE cells; assay: VEGFR2-mediated signal transduction in KDR-PAE cells; assay type: cell-based, porcine
# KDR-PAE cells [8] = assay: proliferation of KDR-PAE cells; assay type: cell-based, porcine
# rat VEGFR2 = rat VEGFR2 (Rattus norvegicus (Rat), UniProt O08775); assay: Biacore analysis of binding to rat VEGFR2; details: rat antigen
# Method: The binding constants of Mab 147 and Mab 149 as well as the parent Mab 160 for human, murine, and rat VEGFR2 were determined by Biacore analysis (Table 4).
# murine VEGFR2 [9] = biological target: T2, murine VEGFR2; assay: ELISA receptor binding, mVEGFR2
# [10] = biological target: human VEGFR2 on HUVEC and KDR-PAE cells (Homo sapiens (Human), UniProt P35968); assay: binding to hVEGFR2 on HUVEC and KDR-PAE cells; assay type: cell-based
# Description: Binding of Mab 147 to hVEGFR2 and mVEGFR2 expressed on cell membranes was also confirmed. […] Mab 147 also bound to mVEGFR expressed by MS1 murine endothelial cells (FIG. 8B).
# [11] = biological target: binding of murine VEGF with murine VEGFR2 (Mus musculus (Mouse), UniProt P35918); assay: ELISA ligand blocking, murine VEGF / murine VEGFR2
# human VEGFR2 [12] = biological target: T1, human VEGFR2; assay: ELISA receptor binding, hVEGFR2
# T1 sequence (P35968 20-1356): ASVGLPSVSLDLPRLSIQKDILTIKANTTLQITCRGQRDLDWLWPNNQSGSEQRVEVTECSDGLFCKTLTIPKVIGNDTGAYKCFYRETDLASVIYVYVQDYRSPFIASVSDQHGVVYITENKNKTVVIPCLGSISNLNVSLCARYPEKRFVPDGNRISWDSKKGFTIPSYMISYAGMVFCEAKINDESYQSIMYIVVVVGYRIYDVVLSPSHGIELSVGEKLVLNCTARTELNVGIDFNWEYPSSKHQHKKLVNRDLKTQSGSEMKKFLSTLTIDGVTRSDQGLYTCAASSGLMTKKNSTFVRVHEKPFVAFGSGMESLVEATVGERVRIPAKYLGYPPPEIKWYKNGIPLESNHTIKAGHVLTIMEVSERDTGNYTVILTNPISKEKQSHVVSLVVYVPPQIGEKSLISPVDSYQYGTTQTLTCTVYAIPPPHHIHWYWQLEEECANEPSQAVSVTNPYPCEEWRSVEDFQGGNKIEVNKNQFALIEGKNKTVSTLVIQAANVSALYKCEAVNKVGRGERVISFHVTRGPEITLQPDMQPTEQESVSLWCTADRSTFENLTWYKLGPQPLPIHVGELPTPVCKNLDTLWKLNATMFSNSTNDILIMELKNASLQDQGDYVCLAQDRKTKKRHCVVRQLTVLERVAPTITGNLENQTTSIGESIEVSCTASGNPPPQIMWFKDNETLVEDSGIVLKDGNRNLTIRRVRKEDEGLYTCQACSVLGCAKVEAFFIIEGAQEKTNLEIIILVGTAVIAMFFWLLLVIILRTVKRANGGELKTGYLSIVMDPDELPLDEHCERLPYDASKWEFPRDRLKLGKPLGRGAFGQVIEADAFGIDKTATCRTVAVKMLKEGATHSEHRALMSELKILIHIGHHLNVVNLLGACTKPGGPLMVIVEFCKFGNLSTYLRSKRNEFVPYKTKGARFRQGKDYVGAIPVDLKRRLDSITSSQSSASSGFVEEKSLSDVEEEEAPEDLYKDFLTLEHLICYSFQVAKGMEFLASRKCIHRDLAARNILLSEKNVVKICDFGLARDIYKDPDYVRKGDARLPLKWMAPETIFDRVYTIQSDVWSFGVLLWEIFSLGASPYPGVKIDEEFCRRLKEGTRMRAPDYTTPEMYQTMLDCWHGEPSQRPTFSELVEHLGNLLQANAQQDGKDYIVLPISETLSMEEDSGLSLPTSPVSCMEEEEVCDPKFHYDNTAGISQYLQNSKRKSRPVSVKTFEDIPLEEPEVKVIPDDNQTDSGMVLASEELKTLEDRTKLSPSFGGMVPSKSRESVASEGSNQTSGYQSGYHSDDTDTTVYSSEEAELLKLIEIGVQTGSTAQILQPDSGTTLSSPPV
# T2 sequence (P35918 20-1345): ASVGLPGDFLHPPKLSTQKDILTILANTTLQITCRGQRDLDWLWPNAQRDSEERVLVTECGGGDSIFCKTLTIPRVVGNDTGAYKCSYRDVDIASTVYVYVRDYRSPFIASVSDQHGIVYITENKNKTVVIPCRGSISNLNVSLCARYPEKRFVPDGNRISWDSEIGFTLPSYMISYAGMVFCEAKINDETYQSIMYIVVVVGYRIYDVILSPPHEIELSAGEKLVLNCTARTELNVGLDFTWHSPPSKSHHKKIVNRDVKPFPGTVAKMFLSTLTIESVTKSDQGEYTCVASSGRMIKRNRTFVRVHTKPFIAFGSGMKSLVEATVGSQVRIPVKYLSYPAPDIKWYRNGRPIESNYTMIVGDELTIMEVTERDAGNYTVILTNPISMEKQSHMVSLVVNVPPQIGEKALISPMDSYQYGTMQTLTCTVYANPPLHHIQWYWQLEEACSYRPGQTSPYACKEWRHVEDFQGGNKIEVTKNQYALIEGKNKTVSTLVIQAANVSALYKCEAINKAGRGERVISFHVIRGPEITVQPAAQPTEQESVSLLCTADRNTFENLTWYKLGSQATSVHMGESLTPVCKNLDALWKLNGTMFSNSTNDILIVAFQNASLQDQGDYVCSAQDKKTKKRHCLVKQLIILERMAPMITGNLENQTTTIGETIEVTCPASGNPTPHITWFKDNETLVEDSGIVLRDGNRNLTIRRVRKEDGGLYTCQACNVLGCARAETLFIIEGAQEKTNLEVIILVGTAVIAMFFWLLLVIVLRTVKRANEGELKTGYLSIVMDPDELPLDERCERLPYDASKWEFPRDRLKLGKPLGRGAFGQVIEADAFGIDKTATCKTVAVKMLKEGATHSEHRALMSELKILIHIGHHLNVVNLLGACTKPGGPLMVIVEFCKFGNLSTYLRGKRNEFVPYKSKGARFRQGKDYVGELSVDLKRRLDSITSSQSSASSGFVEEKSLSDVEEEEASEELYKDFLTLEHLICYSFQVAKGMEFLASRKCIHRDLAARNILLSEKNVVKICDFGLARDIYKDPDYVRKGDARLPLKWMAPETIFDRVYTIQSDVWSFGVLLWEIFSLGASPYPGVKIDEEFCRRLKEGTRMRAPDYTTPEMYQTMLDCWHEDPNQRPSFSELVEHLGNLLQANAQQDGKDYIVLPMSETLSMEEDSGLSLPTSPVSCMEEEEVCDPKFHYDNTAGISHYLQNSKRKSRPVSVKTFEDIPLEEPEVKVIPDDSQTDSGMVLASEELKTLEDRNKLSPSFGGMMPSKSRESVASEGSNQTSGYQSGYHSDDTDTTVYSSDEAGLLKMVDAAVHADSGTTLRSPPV
# Chain of binding of human VEGF with human VEGFR2 (P35968 20-764): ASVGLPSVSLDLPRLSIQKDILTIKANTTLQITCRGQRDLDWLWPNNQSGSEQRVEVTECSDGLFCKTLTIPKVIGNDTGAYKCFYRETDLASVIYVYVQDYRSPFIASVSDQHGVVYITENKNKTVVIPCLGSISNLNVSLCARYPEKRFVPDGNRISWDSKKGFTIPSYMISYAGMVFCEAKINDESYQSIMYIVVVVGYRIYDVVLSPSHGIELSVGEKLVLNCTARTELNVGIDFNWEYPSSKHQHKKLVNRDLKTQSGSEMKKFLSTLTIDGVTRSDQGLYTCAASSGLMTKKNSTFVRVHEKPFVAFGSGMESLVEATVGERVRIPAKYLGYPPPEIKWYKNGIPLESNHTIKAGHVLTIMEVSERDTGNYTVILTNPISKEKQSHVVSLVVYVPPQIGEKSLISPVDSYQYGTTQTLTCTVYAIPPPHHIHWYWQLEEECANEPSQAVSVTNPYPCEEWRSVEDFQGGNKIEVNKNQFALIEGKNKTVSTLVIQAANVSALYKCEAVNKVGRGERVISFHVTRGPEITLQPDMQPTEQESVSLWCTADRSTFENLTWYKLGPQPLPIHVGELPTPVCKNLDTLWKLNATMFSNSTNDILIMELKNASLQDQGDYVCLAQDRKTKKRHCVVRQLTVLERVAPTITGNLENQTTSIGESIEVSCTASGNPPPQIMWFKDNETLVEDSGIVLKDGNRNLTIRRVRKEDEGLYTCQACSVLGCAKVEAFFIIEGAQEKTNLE
# Chain of VEGFR2 on MS1 murine endothelial cells (P35918 20-1345): as the sequence (P35918 20-1345) above
# Chain of binding of murine VEGF with murine VEGFR2 (P35918 20-762): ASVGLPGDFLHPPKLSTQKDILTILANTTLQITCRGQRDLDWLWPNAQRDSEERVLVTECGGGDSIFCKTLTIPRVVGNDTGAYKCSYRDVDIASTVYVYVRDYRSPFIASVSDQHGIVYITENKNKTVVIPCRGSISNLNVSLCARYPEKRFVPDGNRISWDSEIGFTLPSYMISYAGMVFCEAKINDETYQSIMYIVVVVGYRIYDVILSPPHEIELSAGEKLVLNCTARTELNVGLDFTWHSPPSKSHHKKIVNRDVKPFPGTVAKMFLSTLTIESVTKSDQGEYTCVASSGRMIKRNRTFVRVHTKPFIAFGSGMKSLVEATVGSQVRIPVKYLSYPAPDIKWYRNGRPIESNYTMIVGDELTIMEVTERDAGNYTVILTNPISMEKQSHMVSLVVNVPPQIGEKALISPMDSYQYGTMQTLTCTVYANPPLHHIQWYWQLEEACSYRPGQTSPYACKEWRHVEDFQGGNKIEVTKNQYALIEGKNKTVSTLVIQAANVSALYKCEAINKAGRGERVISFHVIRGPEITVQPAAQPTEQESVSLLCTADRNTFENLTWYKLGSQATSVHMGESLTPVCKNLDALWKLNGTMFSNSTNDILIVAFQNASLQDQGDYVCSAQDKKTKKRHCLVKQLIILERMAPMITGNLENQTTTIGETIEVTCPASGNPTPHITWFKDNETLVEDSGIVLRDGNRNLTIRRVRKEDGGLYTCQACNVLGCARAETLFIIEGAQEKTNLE
# Chain of human VEGFR2 on HUVEC and KDR-PAE cells (P35968 20-1356): as the sequence (P35968 20-1356) above
molecule,measurement,setting,value
"Mab 147: affinity matured anti-VEGFR2 antibody derived from Mab 138; VH SEQ ID NO:200, VL SEQ ID NO:204 (antibody, V domains shown, Mutation of library member) VH: EVQLLESGGGLVQPGGSLRLSCAASGFTFSWYVMGWVRQAPGKGLEWVSSIYPQGGATSYADSVKGRFTISRDNSKNTLYLQMNSLRAEDTAVYYCARGNYFDYWGQGTLVTVSS VL: DIQMTQSPGTLSLSPGEGATLSCRASQSVSSNYFGWYQQKPGQAPRLLIYGASSRATGIPDRFSGSGSGTDFTLTISRLEPEDSAVYYCQQFDSLPLTFGGGTKVEIKR",ka,human VEGFR2 [1],1.13E+05
same,kd,human VEGFR2 [1],2.82E−04
same,VEGF-induced migration of KDR-PAE cells,KDR-PAE cells [2],inhibiting
same,phosphorylation of KDR and p44/42,[3],inhibit
same,phosphorylation of KDR and p44/42,[3]; listed as Mab-147,reduced phosphorylation
same,blocking of binding of human VEGF with human VEGFR2,[4],blocks ligand binding
same,ka,murine VEGFR2 [5],4.38E+04
same,kd,murine VEGFR2 [5],1.28E−03
same,binding to VEGFR2 on MS1 murine endothelial cells,[6],binds; also recorded: bound
same,phosphorylation of KDR and p44/42,[7],inhibit
same,phosphorylation of KDR and p44/42,[7]; listed as Mab-147,reduced phosphorylation
same,proliferation of KDR-PAE cells,KDR-PAE cells [8],inhibit
same,ka,rat VEGFR2,6.45E+04
same,kd,rat VEGFR2,8.99E−04
same,binding to murine VEGFR2,murine VEGFR2 [9],binds to both hVEGFR2 and mVEGFR2 with similar affinity
same,binding to hVEGFR2 expressed on cell membranes,[10],confirmed
same,blocking of binding of murine VEGF with murine VEGFR2,[11],blocks ligand binding
same,binding to human VEGFR2,human VEGFR2 [12],binds to both hVEGFR2 and mVEGFR2 with similar affinity
